Test results taken from publication PMC2112731.

Target: F-actin in a glycerinated muscle fiber (rabbit (endogenous in psoas muscle fiber)) (UniProt P68135)
Experiment: fluorescence intensity of a labeled muscle fiber

Substance: phalloidin-(fluorescein isothiocyanate) FITC complex (peptide)
- stoichiometry N (mol of the toxin per mol of actin): 1
